Reference: patent US20250186598A1, “RECOMBINANT HUMAN SERUM ALBUMIN-COLLAGEN BINDING DOMAIN FUSION PROTEIN FOR TUMOR-SPECIFIC TARGETING MATRIX, AND USE THEREOF” (Huatong Forturn (China) Co., Ltd., priority 2020, published 2025)

System: cell proliferation
Assay: Recombinant human EGF biological activity assay (cell proliferation method/MTT colorimetric method), Chinese Pharmacopoeia 2015 General Rule 3528
Assay type: cell-based
Description: According to the Pharmacopoeia method, the biological activity of the rHSA/CBD-EGF complex was measured at the cellular level [2015 edition of the Chinese Pharmacopoeia Three General Rules 3528: Recombinant human epidermal growth factor biological activity assay (cell proliferation method/MTT colorimetric method)].

rHSA/CBD: human CBD (vWF A3 domain) ligated to C-terminal of HSA through connecting peptide (GGGS)2; SEQ ID NO. 3
Biological specific activity: None
